In test [1] the target is human epidermal growth factor receptor 1 (EGFR1), on the surface of HSC-2 and FaDu tumor cells (human) (UniProt P00533). As to the kind of experiment: flow cytometry, AlexaFluor488-labeled compound 5 ug/ml, 3 h at +37 C, FaDu cells; cell surface bound plus internalized, normalized to degree of labeling.
Test [2] has the same target. As to the kind of experiment: flow cytometry, AlexaFluor488-labeled compound 5 ug/ml, 3 h at +37 C, HSC-2 cells; cell surface bound plus internalized, normalized to degree of labeling. In general terms: A flow cytometer gives signals particle by particle.
The target is the same in test [3]. As to the kind of experiment: tritium-labeled compound 5 ug/ml, 3 h at +37 C, FaDu cells, scintillation counting of cell lysate; internalized plus cell surface bound; mean +/- S.D. of three.

Take “Control-F(ab')2 (F(ab')2 fragment of omalizumab)”: the Normalized mean fluorescence intensity in test [1] worked out at 443; in test [2] it was 823.

On to “Control-Fab (Fab fragment of omalizumab)”, for which the Normalized mean fluorescence intensity in test [1] is 970; in test [2] it was 1160.

Consider “Control-mAb (omalizumab, anti-IgE) (antibody)”, for which the Normalized mean fluorescence intensity in test [2] was found to be 700. For the same substance, the % internalized/100000 cells in test [3] came to 0.01%.

The values above are taken from patent US20190240330A1.
